Target: human PD-L1 (endogenous, in the mixed leukocyte reaction of human CD4 T-cells and monocyte-derived dendritic … (human, UniProt Q9NZQ7 19-290))
Test: cell-based or functional assay

B1: Antibody C (bispecific antibody, human IgG1, kappa, lambda, L234A L235A)
heavy 1: not shown
light 1: not shown
heavy 2: not shown
light 2: DIVMTQSPSSLSASVGDGVTITCQASQDIYNYLNWYQQKPGKAPKLLIYYASSIVSGVPSRFSGSGSGTDFTLTISSLQPEDFATYYCQQASSFPPTFGQGTKLEIKRTVAAPSVFIFPPSDEQLKSGTARVGCLLNNFYPREAKVQWKVDNALQSGNSQESVTEQDSKDSTYSLRSALTLSKADYEKHKVYACEVTHQGLSSPVTKSFNRGEC
IFN-γ levels in the mixed leukocyte reaction (MLR) at 4 nM antibody: ~3 fold | IFN-γ levels in the mixed leukocyte reaction (MLR) at 8 nM antibody: ~5 fold

Reference: US20180289803A1 (Eli Lilly, published 2018)
